Measurements reported in patent US20200040103A1.

Columns and labels:
[1] = target: recombinant human KLK5 (human) (UniProt Q9Y337); assay: Kiapp assay curve, 0.250 nM KLK5, Z-VPR-pNA
[2] = target: recombinant human KLK5 (human) (UniProt Q9Y337); assay: KLK5 direct activity assay, 5 nM KLK5, Boc-VPR-AMC
[3] = target: recombinant human KLK5 (human) (UniProt Q9Y337); assay: Kiapp as the y-intercept of the line of IC50 (nM) versus KLK5 (nM), Z-VPR-pNA
[4] = target: recombinant human KLK5 (human) (UniProt Q9Y337); assay: pro-KLK1 LC/MS assay, 0.5 nM KLK5
[5] = target: recombinant human KLK5 (human) (UniProt Q9Y337); assay: SPR BIAcore T200, antibody captured by anti-human Fc, human KLK5 as analyte, 37 C
[6] = target: recombinant human KLK5 (human) (UniProt Q9Y337); assay: pro-KLK1 coupled assay, 0.5 nM KLK5, 31.25 nM pro-KLK1, PFR-AMC
[7] = target: recombinant human KLK5 (human) (UniProt Q9Y337); assay: pro-KLK7 LC/MS assay, 5 nM KLK5
[8] = target: recombinant human KLK5 (human) (UniProt Q9Y337); assay: Kiapp assay curve, 0.500 nM KLK5, Z-VPR-pNA
[9] = target: recombinant human KLK5 (human) (UniProt Q9Y337); assay: Kiapp assay curve, 0.125 nM KLK5, Z-VPR-pNA
[10] = target: recombinant human KLK5 (human) (UniProt Q9Y337); assay: pro-KLK7 LC/MS assay, 5 nM KLK5, 15 nM pro-KLK7; box prints neither IC50 nor a unit, IC50 in nM per text
[11] = target: recombinant human KLK5 (human) (UniProt Q9Y337); assay: pro-KLK1 LC/MS assay, 0.5 nM KLK5, 300 nM pro-KLK1; single value in the box; unit inferred, nM
[12] = target: recombinant human KLK5 (human) (UniProt Q9Y337); assay: direct activity assay, 5 nM KLK5, Boc-VPR-AMC
[13] = target: recombinant human KLK5 (human) (UniProt Q9Y337); assay: pro-KLK7 coupled assay, 5 nM KLK5
[14] = target: recombinant human KLK5 (human) (UniProt Q9Y337); assay: pro-KLK1 coupled assay, 0.5 nM KLK5
[15] = target: recombinant human KLK5 (human) (UniProt Q9Y337); assay: Kiapp, KLK5 0.5-0.0625 nM, Z-VPR-pNA

Chain of recombinant human KLK5 (human) (Q9Y337 67-293): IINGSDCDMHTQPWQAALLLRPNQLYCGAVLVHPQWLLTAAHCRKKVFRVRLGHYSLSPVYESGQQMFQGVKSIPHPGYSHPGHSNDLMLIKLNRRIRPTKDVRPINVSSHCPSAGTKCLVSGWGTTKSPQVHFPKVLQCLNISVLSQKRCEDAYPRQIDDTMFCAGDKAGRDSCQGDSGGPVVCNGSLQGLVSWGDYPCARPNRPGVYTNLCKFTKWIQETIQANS

B1: 3-3F5 (antibody, V domains shown)
VH: QSVKESEGGLFKPTDTLTLTCTVSGFSLNDYGVSWVRQAPGNGLEWIGAIGSSGVAWYANWAKGRSTITRNTNLNTVTLKMASLTAADTATYFCARDRDYGYRADDATSGMDLWGPGTLVTVSS
VL: AYDMTQTPASVEAAVGGTVTIKCQASESIGNALAWYQQKPGQPPKLLIYDASDLASGVPSRFKGSGSGTQFTLTISGVECADAATYYCQQGDSHNNVDNIFGGGTEVVVK
For B1, the IC50 (read off the curve) [1] was 0.07 nM, the IC50 (read off the curve) [2] was 1 to 2 nM and the Ki [3] was 0.0081 nM. The IC50 [4] was 0.15 nM, the Kd [5] was < 0.001 nM and the koff [5] was < 1e-05 s⁻¹. For the same binder, the kon [5] was 2.93e+07 M⁻¹ s⁻¹, the IC50 (read off the curve) [6] was 0.1 to 0.2 nM and the IC50 [7] was 1.44 nM. For the same binder, the IC50 (read off the curve) [8] was 0.1 nM, the IC50 (read off the curve) [9] was 0.04 nM and the IC50 [10] was 1.44 nM. It also gave an IC50 [11] of 0.152 nM, an IC50 [12] of 1.32 nM and an IC50 [13] of 1.53 nM. For the same binder, the IC50 [14] was 0.14 nM and the Ki [15] was < 0.01 nM.
